# According to PMC8136665:
# pKd: −log10 of the molar value. Where “and” joins values, the source holds several entries; their conditions need not be identical. Equal entries are not always repeated.
# How the values were obtained:
# [1] = target: SARS-CoV-2 spike (S) glycoprotein ectodomain, prefusion-stabilised trimer (SARS-CoV-2) (UniProt P0DTC2); test: SPR
# [2] = target: SARS-CoV-2 spike (S) glycoprotein ectodomain, prefusion-stabilised trimer (SARS-CoV-2) (UniProt P0DTC2); test: negative-stain electron microscopy
Substance,pKd [1],stoichiometry N [2]
DC-SIGN extracellular domain (Dendritic Cell-Specific Intercellular adhesion molecule-3-Grabbing Non-integrin) (from UniProt Q9NNX6 66-404) (domain or fragment),4.92 and 5.36,1 and > 2
L-SIGN extracellular domain (liver/lymph node-specific intracellular adhesion molecules-3 grabbing non-integrin) (from UniProt Q9H2X3 78-399) (domain or fragment),5.74 and 5.78,
MGL (Macrophage galactose lectin) extracellular domain (domain or fragment),5.15,
